Patent EP4242225A1 (Consejo Superior De Investigaciones Científicas, dated 2023)
Like-named read-outs stand apart in the source and are kept apart here.

Assays:
[1] = molecular target: S protein of SARS-CoV-2 on pseudotyped retroviral particles (Spp) (SARS-CoV-2, UniProt P0DTC2 14-1273); experiment: cell-based or functional assay
[2] = molecular target: T1, monomeric RBD of SARS-CoV-2 S (WA1) (SARS-CoV-2, UniProt P0DTC2 332-534); experiment: ELISA, hcAb dilutions on plate-bound monomeric RBD
T1 construct: domain: RBD

[3] = molecular target: T2, RBD-FH, monomeric RBD (332-534) with a FLAG peptide and an 8xHis-tag at the C-terminus (SARS-CoV-2, UniProt P0DTC2 332-534)
[4] = molecular target: T2, RBD-FH, monomeric RBD (332-534) with a …; remark: listed apart in the source
[5] = molecular target: T3, RBD-Fc, Wuhan strain (WA1) (SARS-CoV-2; human, UniProt P0DTC2 332-534); experiment: ELISA, biotin-labeled bispecific hcAb on plate-bound RBD-Fc
T3 construct: range 332-534; also called WA1 RBD; WA1 RBD-Fc

B1: hcAb 1.29 (Fc fusion)
heavy: QVQLVESGGGSVQAGGSLRLSCAASGYTINTDAVAWFRQAPGKGDERVAVIYTGSGNTNYADSVKGRFTISQDNAKNTVYLQMNSLKPEDTALYYCASGYYGASGYDFNNWGQGTQVTVSS
[1]
  inhibition of Spp entry into Vero-E6 cells (luciferase, 48 h.p.i.): ≥ 90%
[2]
  EC50: 35 nM
[3]
  Kd: 0.63 nM
  koff: 0.000221 s⁻¹
  kon: 353000 M⁻¹ s⁻¹

B2: Nb 1.29 (VHH)
VHH: QVQLVESGGGSVQAGGSLRLSCAASGYTINTDAVAWFRQAPGKGDERVAVIYTGSGNTNYADSVKGRFTISQDNAKNTVYLQMNSLKPEDTALYYCASGYYGASGYDFNNWGQGTQVTVSS
[4]
  Kd: 12.9 nM
  koff: 0.00614 s⁻¹
  kon: 476000 M⁻¹ s⁻¹

B3: bispecific hcAb 1.29-1.10 (bispecific antibody)
heavy: QVQLVESGGGSVQAGGSLRLSCAASGYTINTDAVAWFRQAPGKGDERVAVIYTGSGNTNYADSVKGRFTISQDNAKNTVYLQMNSLKPEDTALYYCASGYYGASGYDFNNWGQGTQVTVSSGGGGSGGGGSGGGGSQVQLVESGGGSVQAGGSLRLSCAASGYTYSTCRKGWYRQAPGKERELVASITADGATYYLDSVKGRLTISQDNAKNTVYLQMNSLKPEDTAVYYCAASVKDFTCTFNSWGQGTQVTVSS
[5]
  binding result: binds

B4: hcAb 1.16 (Fc fusion)
heavy: QVQLVESGGGSVQAGGSLRLSCAASGNTSKRKCVGWFRRAPGKEREGVTLIYTVGGSTVYADSVKGRFTISQDNAKDTVYLQMNSLKPEDSAMYYCAAESWGRQCNLETHRFTFWGQGTQVTVSS
notes: also called 1.16Fc
[3]
  Kd: 0.25 nM
  koff: 0.000438 s⁻¹
  kon: 1.72e+06 M⁻¹ s⁻¹

B5: Nb 1.16 (VHH)
VHH: QVQLVESGGGSVQAGGSLRLSCAASGNTSKRKCVGWFRRAPGKEREGVTLIYTVGGSTVYADSVKGRFTISQDNAKDTVYLQMNSLKPEDSAMYYCAAESWGRQCNLETHRFTFWGQGTQVTVSS
[4]
  Kd: 3.59 nM
  koff: 0.00705 s⁻¹
  kon: 1.96e+06 M⁻¹ s⁻¹

B6: hcAb 2.20 (Fc fusion)
heavy: QVQLVESGGGSVQAGGSLRLSCAASGYTYNNYYMGWFRQAPGKEREGVAAINSDGLDTYVADSVKGRFTISRDNAKDTVHLQMNSLKPEDTAIYSCATGRTVYYSGYDFRLSVDDYWGQGTQVTVSS
notes: also called 2.20Fc; 2.20 hcAb
[1]
  inhibition of Spp entry into Vero-E6 cells (luciferase, 48 h.p.i.): ≥ 90%
[3]
  Kd: 0.21 nM
  koff: 0.000233 s⁻¹
  kon: 1.09e+06 M⁻¹ s⁻¹

B7: Nb 2.20 (VHH)
VHH: QVQLVESGGGSVQAGGSLRLSCAASGYTYNNYYMGWFRQAPGKEREGVAAINSDGLDTYVADSVKGRFTISRDNAKDTVHLQMNSLKPEDTAIYSCATGRTVYYSGYDFRLSVDDYWGQGTQVTVSS
[4]
  Kd: 0.77 nM
  koff: 0.00101 s⁻¹
  kon: 1.3e+06 M⁻¹ s⁻¹

B8: Nb 2.11 (VHH)
VHH: QVQLVESGGGSVQAGGSLRLSCAASGDASNRKCVSWFRRAPGKEREGVALIFPVGSSTAYADSVKGRFTISQDSAKDTVYLQMNNLKPEDSGTYYCAAVSWGGRCNLETQTVTFWGQGTQVTVSS
[4]
  Kd: 1.72 nM
  koff: 0.0054 s⁻¹
  kon: 3.15e+06 M⁻¹ s⁻¹

B9: hcAb 2.11 (Fc fusion)
heavy: QVQLVESGGGSVQAGGSLRLSCAASGDASNRKCVSWFRRAPGKEREGVALIFPVGSSTAYADSVKGRFTISQDSAKDTVYLQMNNLKPEDSGTYYCAAVSWGGRCNLETQTVTFWGQGTQVTVSS
notes: also called 2.11Fc
[3]
  Kd: 0.16 nM
  koff: 0.0003 s⁻¹
  kon: 1.82e+06 M⁻¹ s⁻¹

B10: hcAb 1.26 (Fc fusion)
heavy: QVQLVESGGGLVQAGGSLRLSCAATGYTWSSVCMGWFRQAPGKEREGVAGIPSGRNRPYYADSVKGRFTISQDNAKNAVFLLMNSLKPEDTAIYYCAPCSAPHDPEYNYWGQGTQVTVSS
[1]
  inhibition of Spp entry into Vero-E6 cells (luciferase, 48 h.p.i.): ≥ 90%
[2]
  EC50: 1 nM
[3]
  Kd: 0.08 nM
  koff: 0.000148 s⁻¹
  kon: 1.76e+06 M⁻¹ s⁻¹

B11: Nb 1.26 (VHH)
VHH: QVQLVESGGGLVQAGGSLRLSCAATGYTWSSVCMGWFRQAPGKEREGVAGIPSGRNRPYYADSVKGRFTISQDNAKNAVFLLMNSLKPEDTAIYYCAPCSAPHDPEYNYWGQGTQVTVSS
[4]
  Kd: 0.26 nM
  koff: 0.000624 s⁻¹
  kon: 2.44e+06 M⁻¹ s⁻¹

B12: hcAb 2.1 (Fc fusion)
heavy: QVQLVESGGGSVQAGGSLRLSCAAFGATISSAHMGWFRQAPGKEREGVAFRYTDGSSTYYTTSVRGRFTISQDNAKNTVYLQMNSLKPEDTAMYYCASNPSWGRLVGGQYNNWGQGTQITVSS
notes: also called 2.1Fc
[1]
  inhibition of Spp entry into Vero-E6 cells (luciferase, 48 h.p.i.): > 90%
[3]
  Kd: 0.36 nM
  koff: 0.000281 s⁻¹
  kon: 771000 M⁻¹ s⁻¹

B13: Nb 2.1 (VHH)
VHH: QVQLVESGGGSVQAGGSLRLSCAAFGATISSAHMGWFRQAPGKEREGVAFRYTDGSSTYYTTSVRGRFTISQDNAKNTVYLQMNSLKPEDTAMYYCASNPSWGRLVGGQYNNWGQGTQITVSS
[4]
  Kd: 1.74 nM
  koff: 0.00233 s⁻¹
  kon: 1.34e+06 M⁻¹ s⁻¹

B14: hcAb 1.10 (Fc fusion)
heavy: QVQLVESGGGSVQAGGSLRLSCAASGYTYSTCRKGWYRQAPGKERELVASITADGATYYLDSVKGRLTISQDNAKNTVYLQMNSLKPEDTAVYYCAASVKDFTCTFNSWGQGTQVTVSS
[1]
  inhibition of Spp entry into Vero-E6 cells (luciferase, 48 h.p.i.): > 90%

B15: hcAb 2.15 (Fc fusion)
heavy: QVQLVESGGGSVQAGGSLKLSCAASGYASWARKCIGWFRQAPGQEREGVAAIFDFDGSTYYSDSVKGRFTISGDNAKNTVSLQMNSLLPKDTAVYYCTVAFGTCDNWYRGRGDYWGQGTQVTVSS
[1]
  inhibition of Spp entry into Vero-E6 cells (luciferase, 48 h.p.i.): > 90%
